Measurements published in paper PMC7442826 (2020).

B1: EHBP1 CH (calponin homology) domain [human] / EHBP1 bMERB domain (bMERB_(1060-1212), full-length bMERB domain) [human] (parent complex)
chain 1: GRKPNASQSLLVWCKEVTKNYRGVKITNFTTSWRNGLSFCAILHHFRPDLIDYKSLNPQDIKENNKKAYDGFASIGISRLLEPSDMVLLAIPDKLTVMTYLYQIRAHFSGQ
chain 2: not shown

Variants of: B1
Test: ITC

| Kd | Variant |
| --- | --- |
| 43.5 µM | chain 1 D93A |

Variants of: B1
Test: ITC
Remark: another data set of the same source

| Kd | Variant |
| --- | --- |
| 5.65 µM | chain 1 Y102A |

Variants of: B1
Test: ITC
Remark: another data set of the same source

| Kd | Variant |
| --- | --- |
| 3.85 µM | chain 1 Q103A |

Variants of: B1
Test: ITC
Remark: another data set of the same source

| Kd | Variant |
| --- | --- |
| 7.6 µM | chain 1 M98A |
